Source: the supplement of paper PMC10567573

B1: TIA1 (parent)
chain: TYECRCIGEEKEMWNFGEKYARF

Variants of: B1
Test: protein stability index of a GFP-peptide fusion (GPS, HEK-293T) (PSI 1-6); higher = more stable
Details: c terminus: native
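Also: lentivirally expressed fusions sorted by FACS into six bins by GFP to DsRed ratio, PSI derived from sequencing read proportions per bin multiplied by bin number.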

Protein stability index, by site and new letter:
T1: V 1.8, W 1.68, Y 1.63
Y2: A 2.94, C 3.3, D 4.27, E 4.79, F 4.21, G 4.38, H 2.44, I 3.31, K 3.51, L 3.66, M 2.88, N 3.75, P 3.99, Q 3.97, R 3.07, S 3.2, T 4.18, V 3.16, W 4.98
E3: A 2.23, C 3.65, D 3.24, G 2.14, H 1.8, K 1.66, L 2.42, M 2.49, N 1.98, P 2.47, Q 2.61, R 1, S 1.94, T 3.76, Y 2.18
C4: A 3.13, E 2.2, F 2.28, H 3.33, I 2.31, K 3.16, L 2.85, M 2.62, N 2.31, P 3.81, Q 1.67, R 2.31, S 2.01, T 2.31, V 1.88, W 1.91, Y 1.93
R5: A 1.66, C 1.97, D 3.07, E 2.02, F 2.1, G 2.93, H 2.62, I 2.8, K 2.3, L 2.29, N 2.86, P 3.48, Q 1.73, S 2.54, T 2.31, V 2.46, W 1.98, Y 1.35
C6: A 2.92, D 4.2, E 4.37, F 3.08, G 3.94, H 3.75, I 2.89, K 3.64, L 1.56, M 1.84, N 3.44, P 3.72, Q 3.9, R 3.38, S 3.8, T 3.1, W 1.53, Y 2.14
I7: D 2.87, E 3.42, F 2.12, G 3, H 3.01, K 2.18, L 1.98, M 1.72, N 2.66, P 3.87, Q 3.02, R 1.8, S 2.16, T 2.98, V 1.76, Y 2.3
G8: A 2.54, C 1.6, D 1.58, F 2.01, H 1.46, I 2.04, K 2.18, N 2.28, P 2.14, R 3.32, S 1.98, T 2.47, V 2.65, Y 2.37
E9: A 1.85, C 2.1, D 2.28, F 1.81, G 2.09, H 1.74, I 1.89, K 2.49, L 3.02, M 1.33, N 2.29, P 1.82, Q 2.46, R 1.88, S 1.84, T 1.61, V 1.92, W 1.74, Y 1.85
E10: A 2.85, C 2.25, D 1.99, G 1.86, H 2.49, I 2.56, L 2.25, N 1.83, P 2.12, Q 1.71, S 2.23, T 1.43, V 1.58, W 2.52
K11: A 3.42, C 3.31, D 2.38, E 2.54, F 1.53, G 2.62, H 1.78, I 1.3, L 1.5, M 1.88, N 2.69, P 2.02, Q 1.84, R 1.57, S 1.98, T 3.28, V 2.57, W 1.83, Y 2.17
E12: C 2.08, D 1.91, F 3.56, G 2.71, H 2.03, I 1.39, K 1.4, L 2.33, M 1.88, N 2.08, P 2.35, Q 2.3, R 1.42, S 2.21, T 2.19, V 1.59, W 2.5, Y 1.3
M13: A 1.74, C 2.14, D 2.19, F 1.23, G 2.61, H 2.24, I 2.07, K 1.87, L 2.48, N 2.31, P 2.19, Q 1.71, R 2.11, S 1.98, T 2.18, V 2.03, W 3.09, Y 1.56
W14: A 2.14, C 2.17, D 2.61, E 2.51, F 2.39, G 2.88, H 2.49, I 2.28, K 1.6, L 1.64, M 2.27, N 2.1, P 2.31, Q 2.24, S 2.98, T 2.22, V 2.34, Y 2.65
N15: C 1.96, D 2.04, E 2.37, F 2.46, G 2, H 2.33, I 2.02, K 1.86, L 2.37, M 1.43, P 2.25, Q 1.42, S 2.13, T 1.92, V 2.3, W 2.77, Y 1.56
F16: A 2.43, C 2.42, D 2.78, E 2.9, G 2.29, H 2.26, I 1.57, K 2.44, L 1.74, M 3, N 1.85, P 1.91, R 2.14, S 2.66, T 3, V 2.45, W 1.77, Y 2.2
G17: A 2.27, C 1.75, D 3.11, E 2.16, F 1.81, H 2, I 1.16, K 1.98, L 2.35, M 1.86, N 3.29, P 2.15, Q 2.1, R 2.1, S 1.72, T 2.89, V 2.03, W 2.2, Y 1.7
E18: A 1.27, C 2.41, D 2.22, F 2.24, H 2.97, I 2.3, K 2.49, L 1.94, M 1.81, N 1.79, P 1.65, Q 1.8, S 1.97, T 1.67, V 3, W 3.12, Y 1.89
K19: A 1.65, C 1.85, D 3.32, E 3.18, F 2.16, G 2.51, I 1.62, L 1.59, M 1.29, P 3.04, Q 2.41, R 2.44, S 2.27, T 2.06, V 1.76, Y 4.2
Y20: A 2.58, C 1.81, D 3.16, E 3.6, F 2.86, G 3.89, H 3.71, I 1.7, K 3.52, L 1.54, M 3.19, N 2.26, P 1.11, Q 4, S 3.24, T 2.61, V 3.04, W 2.31
A21: C 1.89, D 3.1, E 3.16
